Measurements reported in patent EP4792821A2 (Beijing Youcare Kechuang Pharmaceutical Technology Co., Ltd., dated 2026).
*1 amine or outer side, *2 acyl side, *3 side chain or, on linkers, in order; H or OH if unused. Where no end group is shown, it is not given here. Side-chain parts run from the residue outwards. The star is where a group is joined. Succinyl(4-O-cholesteryl) = CC(C)CCC[C@@H](C)[C@H]1CC[C@H]2[C@@H]3CC=C4C[C@@H](OC(=O)CCC(=O)*)CC[C@]4(C)[C@H]3CC[C@]12C; Suc = O=C(CCC(=O)[*:2])[*:1]

Experiments:
Assay in all cases: cell-based or functional assay
[1] = target: F protein of RSV A long virus strain (Respiratory Syncytial Virus (RSV) A …, UniProt P12568 26-574)
Sequence of F protein of RSV A long virus strain (P12568 26-574): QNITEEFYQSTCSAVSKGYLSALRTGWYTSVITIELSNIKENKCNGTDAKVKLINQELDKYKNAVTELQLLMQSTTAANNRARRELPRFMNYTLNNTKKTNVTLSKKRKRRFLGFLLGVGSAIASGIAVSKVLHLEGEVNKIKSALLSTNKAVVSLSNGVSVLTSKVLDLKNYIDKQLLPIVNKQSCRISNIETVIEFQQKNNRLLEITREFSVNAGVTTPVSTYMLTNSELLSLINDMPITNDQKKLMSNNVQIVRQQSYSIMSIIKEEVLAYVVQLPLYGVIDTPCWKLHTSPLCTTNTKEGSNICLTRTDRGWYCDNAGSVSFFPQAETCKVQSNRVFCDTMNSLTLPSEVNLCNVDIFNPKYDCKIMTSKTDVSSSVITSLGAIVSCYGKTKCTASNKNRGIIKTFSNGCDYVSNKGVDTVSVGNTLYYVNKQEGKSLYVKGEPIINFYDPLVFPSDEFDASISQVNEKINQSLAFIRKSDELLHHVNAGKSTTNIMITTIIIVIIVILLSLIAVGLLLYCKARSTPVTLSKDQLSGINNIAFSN

[2] = target: F protein of hMPV virus strain A2 (human metapneumovirus (hMPV) A2)
[3] = target: F protein of hMPV virus strain B1 (human metapneumovirus (hMPV) B1)
[4] = target: F protein of hPIV Type 3 (hPIV3 C243) (human Parainfluenza Virus type 3 (hPIV3 …))

Row | Binder | IC50/nM, plaque reduction, RSV A long on HEp-2 cells (Table 2, Cell fusion inhibition activity) [1] | EC50 (nM), plaque reduction, hMPV A2 on Vero cells [2] | EC50 (nM), plaque reduction, hMPV B1 on Vero cells [3] | EC50 (nM), plaque reduction, hPIV3 C243 on LLC-MK2 cells [4]
1 | Ac-WDEFDKKIEEVNKKIEESLKKIEESDKKLEAAAKK([Suc-Succinyl(4-O-cholesteryl)])-NH2 [Compound 13] | 13 nM | 11.7 nM | 6.18 nM | 35.6 nM
2 | Ac-FDAFIQEINVNEDQSLEQSDELLLELHLLHSLLH-NH2 [Compound 7] | > 8000 nM | – | – | –
3 | VFPSDEFDASISQVNEKINQSLAAIRKSDELLHNV (not fully specified; also: modifications not known) [Positive polypeptide 6] | > 300 nM | – | – | –
4 | Ac-ADAFRLEVNDASSKINESIEESLLSLEKLHNVNATA-NH2 [Compound 6] | > 8000 nM | – | – | –
5 | Ac-WDEFDKKIEEVNKKIEESLKKIEESDKKLHNVEAAAKK(Succinyl(4-O-cholesteryl))-NH2 (SMILES CC[C@H](C)[C@H](NC(=O)[C@H](CCCCN)NC(=O)[C@H](CCCCN)NC(=O)[C@H](CC(C)C)NC(=O)[C@H](CO)NC(=O)[C@H](CCC(=O)O)NC(=O)[C@H](CCC(=O)O)NC(=O)[C@@H](NC(=O)[C@H](CCCCN)NC(=O)[C@H](CCCCN)NC(=O)[C@H](CC(N)=O)NC(=O)[C@@H](NC(=O)[C@H](CCC(=O)O)NC(=O)[C@H](CCC(=O)O)NC(=O)[C@@H](NC(=O)[C@H](CCCCN)NC(=O)[C@H](CCCCN)NC(=O)[C@H](CC(=O)O)NC(=O)[C@H](Cc1ccccc1)NC(=O)[C@H](CCC(=O)O)NC(=O)[C@H](CC(=O)O)NC(=O)[C@H](Cc1c[nH]c2ccccc12)NC(C)=O)[C@@H](C)CC)C(C)C)[C@@H](C)CC)C(=O)N[C@@H](CCC(=O)O)C(=O)N[C@@H](CCC(=O)O)C(=O)N[C@@H](CO)C(=O)N[C@@H](CC(=O)O)C(=O)N[C@@H](CCCCN)C(=O)N[C@@H](CCCCN)C(=O)N[C@@H](CC(C)C)C(=O)N[C@@H](Cc1c[nH]cn1)C(=O)N[C@@H](CC(N)=O)C(=O)N[C@H](C(=O)N[C@@H](CCC(=O)O)C(=O)N[C@@H](C)C(=O)N[C@@H](C)C(=O)N[C@@H](C)C(=O)N[C@@H](CCCCN)C(=O)N[C@@H](CCCCNC(=O)CCC(=O)O[C@H]1CC[C@@]2(C)C(=CC[C@H]3[C@@H]4CC[C@H]([C@H](C)CCCC(C)C)[C@@]4(C)CC[C@@H]32)C1)C(N)=O)C(C)C) [Compound 44] | 12.4 nM | 14.6 nM | 6.6 nM | 27.9 nM
6 | IEEVNKKIEESLKKIEESDKKLEEVNKKKEAAAKK (not fully specified; also: modifications not known) [Positive polypeptide 3] | > 300 nM | – | – | –
7 | SLEQVNKKIEQSLKFIEKSDKLLENGSGSGK (not fully specified; also: modifications not known) [Positive polypeptide 1] | 150 nM | – | – | –
8 | Ac-SLEQVNEKINQSLAFIRKSDEINQSDEEVNKSDELLEAAAKK-NH2 [Compound 50] | 15.1 nM | 13.3 nM | 5.95 nM | 34.8 nM
9 | Ac-DEFDKKIEEVNKKIEESLKKIEESDKKLEAAAKK(Succinyl(4-O-cholesteryl))-NH2 [Compound 17] | 17.6 nM | 8.78 nM | 3.61 nM | 52.6 nM
10 | Ac-SLEQVNKKIEQSLESLKKSDKINQSLEEVNKSDELLEAAAKK-NH2 [Compound 49] | > 8000 nM | – | – | –
11 | IEQVNKKIEQSLKFIEKSDKLLENVNKGKCEAAAKK (not fully specified; also: modifications not known) [Positive polypeptide 4] | 190 nM | – | – | –
12 | LEQVNKKIEQSLKFIEKSDKLLENVNKGKCEAAAKK (not fully specified; also: modifications not known) [Positive polypeptide 5] | > 300 nM | – | – | –
13 | Ac-WDEFDKKIEEVNKKIEESLKKIEESDKKLEEVNKKL-NH2 [Compound 5] | 1120 nM | – | – | –
14 | FDASISQVNEKINQSLAFIRKSDELLHNVNAGKSTTEAAAKK (not fully specified; also: modifications not known) [Positive polypeptide 7] | > 300 nM | – | – | –
15 | Ac-DEFDKKKIEEVNKKIEESLKKIEESDKKLEEVGSGSGK([Suc-Succinyl(4-O-cholesteryl)])-NH2 [Compound 18] | 19.2 nM | 35.9 nM | – | 50.5 nM
16 | Ac-SDELVNKKIEFDKKINQSLKKIEESDKKKLEAAAKK-NH2 [Compound 51] | 9.9 nM | 18.8 nM | 3.82 nM | 18.8 nM
17 | Ac-WDEFDKKIEEVNKKIEESLKKIEESDKKLEEVNKKLEAAAKK(Succinyl(4-O-cholesteryl))-NH2 [Compound 9] | 95.7 nM | – | – | –
18 | Ac-FAEFNQKINQVNEKIEESLEEIRKSDEELHNVNATT-NH2 [Compound 8] | 3770 nM | – | – | –
19 | Ac-SLEQVNKINEKINKISQSLKKIEESDKKSDEVNAGLEAAAKK-NH2 [Compound 48] | > 8000 nM | – | – | –
20 | Ac-DEFDKKKIEEVNKKIEESLKKIEESDKKLEEVGSGSGK([Suc-Succinyl(4-O-cholesteryl)])-NH2 [Compound 15] | 10.4 nM | 17.9 nM | – | 20.7 nM
21 | Ac-DEFDKKIEEVNKKIEESLKKIEESDKKLEEVNEAAAKK([Suc-Succinyl(4-O-cholesteryl)])-NH2 [Compound 14] | 9.9 nM | 18.9 nM | 5.36 nM | 31.4 nM
22 | Ac-WDEFDASISQVNEKINQSLEEIRKSDELLHNEAAAKK(Succinyl(4-O-cholesteryl))-NH2 (SMILES CC[C@H](C)[C@H](NC(=O)[C@H](CO)NC(=O)[C@H](C)NC(=O)[C@H](CC(=O)O)NC(=O)[C@H](Cc1ccccc1)NC(=O)[C@H](CCC(=O)O)NC(=O)[C@H](CC(=O)O)NC(=O)[C@H](Cc1c[nH]c2ccccc12)NC(C)=O)C(=O)N[C@@H](CO)C(=O)N[C@@H](CCC(N)=O)C(=O)N[C@H](C(=O)N[C@@H](CC(N)=O)C(=O)N[C@@H](CCC(=O)O)C(=O)N[C@@H](CCCCN)C(=O)N[C@H](C(=O)N[C@@H](CC(N)=O)C(=O)N[C@@H](CCC(N)=O)C(=O)N[C@@H](CO)C(=O)N[C@@H](CC(C)C)C(=O)N[C@@H](CCC(=O)O)C(=O)N[C@@H](CCC(=O)O)C(=O)N[C@H](C(=O)N[C@@H](CCCNC(=N)N)C(=O)N[C@@H](CCCCN)C(=O)N[C@@H](CO)C(=O)N[C@@H](CC(=O)O)C(=O)N[C@@H](CCC(=O)O)C(=O)N[C@@H](CC(C)C)C(=O)N[C@@H](CC(C)C)C(=O)N[C@@H](Cc1c[nH]cn1)C(=O)N[C@@H](CC(N)=O)C(=O)N[C@@H](CCC(=O)O)C(=O)N[C@@H](C)C(=O)N[C@@H](C)C(=O)N[C@@H](C)C(=O)N[C@@H](CCCCN)C(=O)N[C@@H](CCCCNC(=O)CCC(=O)O[C@H]1CC[C@@]2(C)C(=CC[C@H]3[C@@H]4CC[C@H]([C@H](C)CCCC(C)C)[C@@]4(C)CC[C@@H]32)C1)C(N)=O)[C@@H](C)CC)[C@@H](C)CC)C(C)C) [Compound 45] | 12.2 nM | 200 nM | 13.1 nM | 36.3 nM
23 | Ac-SDEFDKKIEEVNKKIEESLKKIEESDKKLEAAAKK([Suc-Succinyl(4-O-cholesteryl)])-NH2 [Compound 16] | 10.3 nM | 7.35 nM | 4.5 nM | 59 nM
24 | Ac-IEQVNKKIEQSLKFIEKSDKLLENVNKGK-NH2 [Positive polypeptide 2] | > 300 nM | – | – | –
